Our source for the % EDC crosslinking and normalized % EDC crosslinking (per EDC-reactive residue beyond the ribosomal tunnel core) values is PMC11137106.

For the experiment, the target named is ribosomal protein L23 (E. coli (endogenous in A19 cell extract)) (UniProt P0ADZ0). The experiment in a line: cross-linking; zero-length EDC crosslinking of resuspended RNCs (ca. 30 nM) made in WT or Δtig A19 E. coli cell-free system (WT: TF 2–15 nM, DnaK 0.5 µM, DnaJ 0.04 µM, GrpE 0.05 µM), +/- puromycin; low-pH SDS-PAGE of the BODIPY-FL nascent chain and Western blots against L23, L24 and L29; percent crosslinking by ImageJ. On the technique in general: In western blotting, separated proteins are transferred to a membrane and probed.
“apoHmp_(1–55) ribosome-bound nascent chain (from UniProt P24232 1-55) (domain or fragment; other documents disagree on this pair)” showed a % EDC crosslinking of 27.4% and a normalized % EDC crosslinking (per EDC-reactive residue beyond the ribosomal tunnel core) of 5.5%.
The like results for “apoHmp_(1–189) ribosome-bound nascent chain (from UniProt P24232 1-189) (domain or fragment; other documents disagree on this pair)” were, in that order, 85% and 2.8%.
On the same counts, the results for “apoHmp_(1–140) ribosome-bound nascent chain (from UniProt P24232 1-140) (domain or fragment; other documents disagree on this pair)” are 92% and 4.6%.
